# Data published in patent US20080058272A1, “Nonamer Peptides for Cancer Treatment” (priority 2006, published 2008).
# B1: FAPα486-494 (487L) (…) (peptide)
# chain: KLLEENKEL
# B2: FAPα16-24 (…) (peptide)
# chain: VLALLVMCI
# B3: FAPα463-471 (471L) (…) (peptide)
# chain: ALVCYGPGL
# B4: FAPα18-26 (…) (peptide)
# chain: ALLVMCIVL
# B5: FAPα463-471 (471V) (…) (peptide)
# chain: ALVCYGPGV
# B6: FAPα486-494 (487L, 494V) (…) (peptide)
# chain: KLLEENKEV
# Target: T1, HLA-A2 (human), P04439
# T1 chain: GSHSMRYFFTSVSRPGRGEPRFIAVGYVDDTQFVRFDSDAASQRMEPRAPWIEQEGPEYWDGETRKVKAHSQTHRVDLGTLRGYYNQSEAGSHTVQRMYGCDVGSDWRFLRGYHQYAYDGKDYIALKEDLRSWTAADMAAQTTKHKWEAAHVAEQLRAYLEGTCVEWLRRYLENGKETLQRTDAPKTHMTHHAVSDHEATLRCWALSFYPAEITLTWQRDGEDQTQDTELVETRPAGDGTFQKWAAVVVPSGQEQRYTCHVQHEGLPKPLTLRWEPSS
# Assay: competitive binding assay (flow cytometry)
# Details: modification not given
row,Binder,IC50 [µM]
1,B1,21.3
2,B2,150
3,B3,3.9
4,B4,650
5,B5,4.6
6,B6,25.4
